Results reported in patent US20220057408A1.

Target: CD3 (Homo sapiens (Human)) (UniProt P07766)
Assay: IHC on tissue (human tonsil), 1ug/mL primary antibody, detected with Goat Anti-rabbit-HRP/DAB; 6 ROIs, 3 tissues, 95% CI for the mean; P=0.000 against H4K4-E

Staining Intensity by ImageJ (mean): 62
Substance: rabbit anti-CD3(SP162) antibody (unmodified)
